Reference: paper PMC2141641 (The Journal of Cell Biology, 1997)

B1: TSP-1 peptide Mal III (peptide)
peptide: SPWDIASVTAGGGVQKRSK
B2: TSP-1 peptide Col overlap (peptide)
peptide: NGVQYRN
B3: GST-CD36 fusion protein FP67-157 (domain or fragment, human, UniProt P16671 67-157, looked up)
chain: IFDVQNPQEVMMNSSNIQVKQRGPYTYRVRFLAKENVTQDAEDNTVSFLQPNGAIFEPSLSVGTEADNFTVLNLAVAAASHIYQNQFVQMI
B4: GST-CD36 fusion protein FP93-120 (domain or fragment, human, UniProt P16671 93-120, looked up)
chain: YRVRFLAKENVTQDAEDNTVSFLQPNGA

Experiments:
Experiment in all cases: radioligand binding
[1] = target: CD36 expressed on Bowes melanoma cells stably transfected with human CD36 cDNA (human, UniProt P16671 1-472)
Sequence of CD36 expressed on Bowes melanoma cells stably transfected with human CD36 cDNA (P16671 whole entry): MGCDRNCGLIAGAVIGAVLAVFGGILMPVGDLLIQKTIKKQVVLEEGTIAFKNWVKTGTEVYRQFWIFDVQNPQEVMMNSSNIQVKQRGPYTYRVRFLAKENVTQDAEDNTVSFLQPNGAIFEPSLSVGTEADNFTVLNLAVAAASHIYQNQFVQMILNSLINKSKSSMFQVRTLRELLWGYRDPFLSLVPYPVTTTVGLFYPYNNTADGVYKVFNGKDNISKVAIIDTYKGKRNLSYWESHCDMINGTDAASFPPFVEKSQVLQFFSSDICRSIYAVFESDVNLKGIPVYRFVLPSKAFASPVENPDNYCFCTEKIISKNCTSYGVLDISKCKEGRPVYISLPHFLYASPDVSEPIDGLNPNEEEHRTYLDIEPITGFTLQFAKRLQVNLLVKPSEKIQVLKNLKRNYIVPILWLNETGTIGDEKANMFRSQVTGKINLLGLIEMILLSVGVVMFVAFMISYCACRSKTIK

[2] = target: B4
Thrombospondin-1 = Thrombospondin-1 (human, UniProt P07996 19-1170, 125I label (radiolabeled TSP-1) in the binding assays)
Sequence of Thrombospondin-1 (P07996 19-1170): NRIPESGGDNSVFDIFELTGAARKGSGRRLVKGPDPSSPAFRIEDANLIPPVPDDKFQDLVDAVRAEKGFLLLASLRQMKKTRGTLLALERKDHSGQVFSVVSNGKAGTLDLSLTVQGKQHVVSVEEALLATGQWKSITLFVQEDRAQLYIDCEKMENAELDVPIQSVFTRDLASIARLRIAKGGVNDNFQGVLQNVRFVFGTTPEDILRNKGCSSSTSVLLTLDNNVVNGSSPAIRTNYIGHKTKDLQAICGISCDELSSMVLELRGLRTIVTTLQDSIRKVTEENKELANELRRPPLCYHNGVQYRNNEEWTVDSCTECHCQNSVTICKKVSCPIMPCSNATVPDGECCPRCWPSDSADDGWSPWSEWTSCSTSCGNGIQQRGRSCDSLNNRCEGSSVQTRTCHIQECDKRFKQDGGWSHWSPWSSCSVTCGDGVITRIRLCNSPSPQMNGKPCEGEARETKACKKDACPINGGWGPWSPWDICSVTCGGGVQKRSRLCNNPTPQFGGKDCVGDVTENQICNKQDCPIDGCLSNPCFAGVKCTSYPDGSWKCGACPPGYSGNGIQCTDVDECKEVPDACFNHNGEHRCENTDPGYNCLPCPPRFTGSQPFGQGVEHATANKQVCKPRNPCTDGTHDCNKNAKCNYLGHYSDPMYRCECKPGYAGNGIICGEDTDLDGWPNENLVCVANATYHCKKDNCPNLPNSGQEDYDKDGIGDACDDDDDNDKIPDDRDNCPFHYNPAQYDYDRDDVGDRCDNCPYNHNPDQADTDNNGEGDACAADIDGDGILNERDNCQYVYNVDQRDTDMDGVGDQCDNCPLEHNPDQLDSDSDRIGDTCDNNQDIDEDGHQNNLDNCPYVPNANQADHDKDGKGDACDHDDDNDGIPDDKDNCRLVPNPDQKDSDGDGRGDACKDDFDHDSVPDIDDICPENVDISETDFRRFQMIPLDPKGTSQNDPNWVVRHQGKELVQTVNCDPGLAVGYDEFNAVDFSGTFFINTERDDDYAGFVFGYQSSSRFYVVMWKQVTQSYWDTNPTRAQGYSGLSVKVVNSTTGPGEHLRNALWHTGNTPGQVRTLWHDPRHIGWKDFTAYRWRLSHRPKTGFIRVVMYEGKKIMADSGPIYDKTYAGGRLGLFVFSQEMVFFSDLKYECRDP

| Binder | IC50 [1] [µM] | binding result [2] | binding result (Thrombospondin-1) |
| --- | --- | --- | --- |
| B1 | 8.6 ± 1.12 | binds | – |
| B2 | 30.1 ± 8.88 | – | – |
| B3 | – | – | binds |
| B4 | – | – | binds |
